From article PMC4937376, “CpsR, a GntR family regulator, transcriptionally regulates capsular polysaccharide biosynthesis and governs bacterial virulence in Streptococcus pneumoniae”

Biological target: 6His-CpsR (Streptococcus pneumoniae D39, UniProt A0A0H2ZMA3 1-247)
Assay: EMSA; 0.25 uM probe; EMSA: 20 ul, LightShift kit buffer (composition not given) with 50 ng/ul poly(dI-dC), 20 min room temperature, 6% gel; footprinting: 400 ng probe in 40 ul, 30 min at 25 C
Settings: protein: recombinant; tags: 6His; chain copies: 2; label: 5'-biotin (top strand); blunt

B1: WT 33-mer (dsDNA)
DNA 1: TGTCATGTTCTTATTTCATTTTACTATATTTTT
DNA 2: AAAAATATAGTAAAATGAAATAAGAACATGACA
  binding result: binds
